These results are taken from patent US20090081226A1.

Assay [1] concerns the target membrane-bound HLA-E (human). As to the kind of experiment: cell-based or functional assay.
The target of assay [2] is membrane-bound HLA-E (human). As to the kind of experiment: flow cytometry on a panel of 22 melanoma cell lines.
Assay [3] concerns the target membrane-bound HLA-E (human). Description: flow cytometry on short term cultured melanocytes. A general note: In flow cytometry, cells or beads pass a laser one at a time.
Assay [4] addresses CD94/NKG2A receptor (human) (UniProt Q13241). As to the kind of experiment: cell-based or functional assay.
Sequence of UniProt Q13241 (Q13241 other isoform, or with tags, fused parts or gaps, chain 1 of 2): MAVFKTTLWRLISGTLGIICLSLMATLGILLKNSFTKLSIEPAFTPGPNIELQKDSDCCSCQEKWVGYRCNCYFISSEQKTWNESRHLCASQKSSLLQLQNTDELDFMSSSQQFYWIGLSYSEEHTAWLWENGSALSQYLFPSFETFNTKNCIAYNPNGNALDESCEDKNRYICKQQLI
Sequence of UniProt Q13241 (chain, as listed by the source, chain 2 of 2): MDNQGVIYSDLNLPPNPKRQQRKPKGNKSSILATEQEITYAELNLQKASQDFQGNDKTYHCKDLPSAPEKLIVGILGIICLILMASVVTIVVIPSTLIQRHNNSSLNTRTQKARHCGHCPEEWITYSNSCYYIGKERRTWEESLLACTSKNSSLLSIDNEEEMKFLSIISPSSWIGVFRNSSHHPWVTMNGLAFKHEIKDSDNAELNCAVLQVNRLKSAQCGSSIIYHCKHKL

In assay [1], anti-HLA-E mAb MEM-E/06 (antibody) displayed an NK-mediated cytotoxicity, specific lysis (51Cr release) of IFNγ-activated HAEC (% specific lysis) of 34.9. On to anti-HLA-E mAb MEM-E/07 (antibody), for which the ratio fluorescence intensity (RFI) (ratio (MFI test / MFI negative control)) is 1 to 4 in assay [2] and 3 to 7 in assay [3]. In the case of “membrane-bound HLA-E (from UniProt P61769 21-119) (peptide-MHC)”, the NK-mediated cytotoxicity, specific lysis (51Cr release) of ECs (% specific lysis) in assay [4] was determined as 2.6.
